For this data set the following is noted: Thermus thermophilus, pH 7, sodium phosphate 50 mM, transition: 2, reversible: yes, whole UniProt chain shown; for denaturant midpoint (higher = more stable): 25 °C, GdnHCl.

B1: Cytochrome c-552 wild type, P04164 (protein)
chain: QADGAKIYAQCAGCHQQNGQGIPGAFPPLAGHVAEILAKEGGREYLILVLLYGLQGQIEVKGMKYNGVMSSFAQLKDEEIAAVLNHIATAWGDAKKVKGFKPFTAEEVKKLRAKKLTPQQVLAERKKLGLK
The term Tm denotes the temperature at which the thermal transition is half complete. As for B1, the “denaturant midpoint (higher = more stable)” value (shortened to “denaturant midpoint”) (absorbance) came to 3.6 M. Moreover, the “denaturant midpoint” value (far-UV-CD) worked out at 4.1 M. In addition, the “denaturant midpoint” value (heme-CD) was 3.4 M. Moreover, under “Thermal, CD”, the Tm was found to be 95 °C, the “heat capacity change of unfolding” value was 0.31 kcal/mol/K, the “unfolding enthalpy (calorimetric)” value came to 30.4 kcal/mol and the unfolding free energy stood at 3.11 kcal/mol.
